Data taken from the Immune Epitope Database (IEDB).
Each block holds one sequence with its values, some of them ahead of it.

How the values were obtained:
HLA-A*02:01 [1] = assay: IEDB peptide-MHC binding, purified MHC/competitive/radioactivity; filed as Kd, often an IC50 or EC50 that approximates it; ≥ and ≤ were set here for values at or beyond the usual limits of such assays
HLA-A*03:01 [2] = assay: as above; details: source organism: Dengue virus 2 Peru/IQT2913/1996
HLA-A*31:01 [3] = assay: as above; details: source organism: Dengue virus 2 Peru/IQT2913/1996
HLA-A*33:01 = assay: as above; details: source organism: Dengue virus 2 Peru/IQT2913/1996
HLA-A*68:01 = assay: as above; details: source organism: Dengue virus 2 Peru/IQT2913/1996
HLA-B*08:01 [4] = assay: as above
HLA-A*11:01 [5] = assay: IEDB peptide-MHC binding, purified MHC/direct/fluorescence; filed as Kd, often an IC50 or EC50 that approximates it; ≥ and ≤ were set here for values at or beyond the usual limits of such assays
HLA-B*07:02 [6] = assay: as above
HLA-B*08:01 [7] = assay: as above
HLA-A*03:01 [8] = assay: IEDB peptide-MHC binding, purified MHC/competitive/fluorescence; filed as Kd, often an IC50 or EC50 that approximates it; ≥ and ≤ were set here for values at or beyond the usual limits of such assays
HLA-B*15:01 [9] = assay: IEDB peptide-MHC binding, purified MHC/direct/fluorescence; filed as Kd, often an IC50 or EC50 that approximates it; ≥ and ≤ were set here for values at or beyond the usual limits of such assays
HLA-B*46:01 = assay: as above; details: source organism: Mammarenavirus lassaense
HLA-A*02:02 = assay: IEDB peptide-MHC binding, purified MHC/competitive/radioactivity; filed as Kd, often an IC50 or EC50 that approximates it; ≥ and ≤ were set here for values at or beyond the usual limits of such assays; details: source organism: Trypanosoma cruzi
HLA-A*02:03 = assay: as above; details: source organism: Trypanosoma cruzi
HLA-A*02:06 = assay: as above; details: source organism: Trypanosoma cruzi
HLA-A*68:02 = assay: as above; details: source organism: Trypanosoma cruzi
HLA-A*02:01 [10] = assay: IEDB peptide-MHC binding, purified MHC/competitive/fluorescence; ≥ and ≤ were set here for values at or beyond the usual limits of such assays; details: source organism: Zaire ebolavirus
HLA-A*11:01 [11] = assay: as above
HLA-A*24:02 = assay: as above; details: source organism: Zaire ebolavirus
HLA-B*07:02 [12] = assay: IEDB peptide-MHC binding, purified MHC/competitive/radioactivity; filed as Kd, often an IC50 or EC50 that approximates it; ≥ and ≤ were set here for values at or beyond the usual limits of such assays
HLA-B*35:01 = assay: as above
HLA-B*51:01 = assay: as above
HLA-B*53:01 = assay: as above
HLA-B*54:01 = assay: as above
HLA-A*01:01 = assay: IEDB peptide-MHC binding, purified MHC/direct/fluorescence; filed as Kd, often an IC50 or EC50 that approximates it; ≥ and ≤ were set here for values at or beyond the usual limits of such assays; details: source organism: Pseudomonas aeruginosa UCBPP-PA14
HLA-A*02:01 [13] = assay: as above; details: source organism: Pseudomonas aeruginosa UCBPP-PA14
HLA-A*03:01 [14] = assay: as above; details: source organism: Pseudomonas aeruginosa UCBPP-PA14
HLA-A*26:01 = assay: as above; details: source organism: Pseudomonas aeruginosa UCBPP-PA14
HLA-A*31:01 [15] = assay: as above; details: source organism: Pseudomonas aeruginosa UCBPP-PA14
HLA-A*69:01 = assay: as above; details: source organism: Pseudomonas aeruginosa UCBPP-PA14
HLA-B*27:05 = assay: as above; details: source organism: Pseudomonas aeruginosa UCBPP-PA14
HLA-B*58:01 = assay: as above; details: source organism: Pseudomonas aeruginosa UCBPP-PA14
HLA-B*15:01 [16] = assay: IEDB peptide-MHC binding, purified MHC/competitive/fluorescence; filed as Kd, often an IC50 or EC50 that approximates it; ≥ and ≤ were set here for values at or beyond the usual limits of such assays; details: source organism: Escherichia coli F11
[17] = source organism: Vaccinia virus WR
[18] = source organism: SARS coronavirus Tor2
[19] = source organism: Dengue virus 2 Jamaica/1409/1983
[20] = source organism: Pseudomonas aeruginosa UCBPP-PA14

Sequence: AAGLQDCTMLV
- Kd (HLA-A*02:01 [1]; source organism: Hepatitis C virus (isolate 1)): ≥ 50 µM

Sequence: MLINRFTMR
- Kd (HLA-A*03:01 [2]): 0.057 µM
- Kd (HLA-A*31:01 [3]): 0.00429 µM
- Kd (HLA-A*33:01): 0.0204 µM
- Kd (HLA-A*68:01): 0.0177 µM
- Kd (HLA-B*08:01 [4]; source organism: Dengue virus 2 Peru/IQT2913/1996): 0.906 µM

Sequence: NPKTPKYKF
- Kd (HLA-A*11:01 [5]; source organism: SARS-CoV1): 3.96 µM
- Kd (HLA-B*07:02 [6]; source organism: SARS-CoV1): ≥ 28.6 µM
- Kd (HLA-B*08:01 [7]; source organism: SARS-CoV1): 1.15 µM

Sequence: TKTTAKEVAL
- Kd (HLA-B*08:01 [4]; source organism: Dengue virus 4 Dominica/814669/1981): 4 µM

Sequence: SVYGLMGFK
- Kd (HLA-A*03:01 [8]; source organism: Myxoma virus): 0.0092 µM

Sequence: LYQPSSGCY
- Kd (HLA-B*15:01 [9]; source organism: Mammarenavirus lassaense): 1.07 µM
- Kd (HLA-B*46:01): ≥ 20 µM

Sequence: SSTSRFVMF
- Kd (HLA-B*08:01 [4]; [17]): 1.1 µM

Sequence: LLGLWGFATA
- Kd (HLA-A*02:01 [1]; source organism: Trypanosoma cruzi): 0.0651 µM
- Kd (HLA-A*02:02): 0.0505 µM
- Kd (HLA-A*02:03): 0.00189 µM
- Kd (HLA-A*02:06): 0.0613 µM
- Kd (HLA-A*68:02): ≥ 49.6 µM

Sequence: SEKMRRERA
- Kd (HLA-B*08:01 [4]; [17]): 0.169 µM

Sequence: SRFTPQFLL
- IC50 (HLA-A*02:01 [10]): ≥ 106 µM
- IC50 (HLA-A*11:01 [11]; source organism: Zaire ebolavirus): 45.4 µM
- IC50 (HLA-A*24:02): 1.73 µM

Sequence: GPLVRKIFV
- Kd (HLA-B*07:02 [12]; [18]): 1.38 µM
- Kd (HLA-B*35:01; [18]): 6.07 µM
- Kd (HLA-B*51:01; [18]): ≥ 22.5 µM
- Kd (HLA-B*53:01; [18]): 11.9 µM
- Kd (HLA-B*54:01; [18]): 18 µM

Sequence: HPDFCKNRRY
- Kd (HLA-B*07:02 [12]; [17]): ≥ 69.6 µM
- Kd (HLA-B*35:01; [17]): 2.21 µM
- Kd (HLA-B*51:01; [17]): ≥ 69.6 µM
- Kd (HLA-B*53:01; [17]): 1.14 µM
- Kd (HLA-B*54:01; [17]): ≥ 49.3 µM

Sequence: YSFSMFMSL
- Kd (HLA-B*08:01 [4]; [17]): 0.146 µM

Sequence: RKNGKKVIQL
- Kd (HLA-B*08:01 [4]; [19]): 0.161 µM

Sequence: LMRRGDLPV
- Kd (HLA-B*08:01 [4]; [19]): 0.0178 µM

Sequence: RPKQRRPQGL
- Kd (HLA-B*07:02 [12]; [18]): 0.308 µM
- Kd (HLA-B*35:01; [18]): ≥ 69.9 µM
- Kd (HLA-B*51:01; [18]): ≥ 69.6 µM
- Kd (HLA-B*53:01; [18]): ≥ 69.9 µM
- Kd (HLA-B*54:01; [18]): ≥ 69.9 µM

Sequence: MQSLKFNRA
- Kd (HLA-B*08:01 [4]; [17]): 0.307 µM

Sequence: IRANNNRLP
- IC50 (HLA-A*11:01 [11]; [17]): ≥ 208 µM

- Kd (HLA-A*01:01): ≥ 20 µM
- Kd (HLA-A*02:01 [13]): ≥ 20 µM
- Kd (HLA-A*03:01 [14]): ≥ 20 µM
- Kd (HLA-A*11:01 [5]; [20]): ≥ 20 µM
- Kd (HLA-A*26:01): ≥ 20 µM
- Kd (HLA-A*31:01 [15]): ≥ 20 µM
- Kd (HLA-A*69:01): ≥ 20 µM
- Kd (HLA-B*07:02 [6]; [20]): ≥ 20 µM
- Kd (HLA-B*08:01 [7]; [20]): ≥ 20 µM
- Kd (HLA-B*15:01 [9]; [20]): ≥ 20 µM
- Kd (HLA-B*27:05): ≥ 20 µM
- Kd (HLA-B*58:01): ≥ 20 µM
Sequence: ANPGRVKDW

Sequence: LMWKQITPEL
- Kd (HLA-B*08:01 [4]; [19]): 1.23 µM

Sequence: PRRCLKPVIL
- Kd (HLA-B*08:01 [4]; source organism: Dengue virus 1 Brazil/97-11/1997): 2.72 µM

- Kd (HLA-A*03:01 [8]; source organism: Escherichia coli F11): ≥ 20 µM
- Kd (HLA-B*15:01 [16]): 3 µM
Sequence: GIAACLMTY
